Data published in publication doi:10.1101/2022.02.16.480668 (bioRxiv, 2022).

Target: the molecule itself
Test: negative-stain electron microscopy of filaments on vesicles

B1: Vps60 (natural protein)
chain: MNRIFGYGNKKSHDQLLQESNQSMNQAQQSLSNRISQLDTQIAQLNFQLQNIQKNLQRSNNKQPSLRKQALKILNKRKQLENMKDSLDSQSWSMTQAQLTNDNLQNTMITINALKQTNNAMKAQYGKINIDKLQDMQDEMLDLIEQGDELQEVLAMNNNSGELDDISDAELDAELDALAQEDFTLPTSENSLGNDMPSYLLGANAPPAFIDEEPNLDTEDKNKALESAQ
modifications: Atto-565 (TFP ester labelling) where fluorescence was read; labeled protein mixed 1:1 with unlabeled protein
binding result: binds
